Assay results from patent US12617818 (UNIVERSITY OF NORTH TEXAS, dated 2026).
Primed or numbered codes have the meaning given here. Where no end group is shown, it is not given here. FITC′ = fluorescein isothiocyanate

T1: Cardiac muscle myosin S2 synthetic peptide for GFS, E930del mutant (MYH7 E930del), 35 residues (human, not fully specified)
T1 peptide: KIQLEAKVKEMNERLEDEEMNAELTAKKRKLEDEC

B1: Human β-cardiac mutant myosin S2 peptide (E930del), 18 residues (peptide)
peptide: EMNERLEDEEMNAELTAK
modifications: also: in FRET: FITC on N-terminus of one monomer, terbium-DTPA-cytosine chelate on C-terminal Lys of the other
notes: Deletion of glutamate 930 already in the entry; also called Edel930; ΔE930
B2: Stabilizer peptide (peptide)
peptide: KKKKKKKKFKAKKKKKK
notes: also called stabilizing peptide; unlabeled stabilizer
B3: FITC (fluorescein isothiocyanate) labeled destabilizing peptide (peptide)
peptide: {FITC′}-EMNERLEDEREMKAELTAK
notes: also called labeled Destabilizer; fluorescein labeled destabilizer peptide
B4: Cardiac muscle myosin S2 synthetic peptide for GFS (MYH7), 36 residues (peptide)
peptide: KIQLEAKVKEMNERLEDEEEMNAELTAKKRKLEDEC
modifications: also: crosslinked to coverslip or silica bead through iodoacetamide-succinimidyl ester
B5: Destabilizer peptide (peptide)
peptide: EMNERLEDEREMKAELTAK
notes: also called destabilizing peptide; unlabeled destabilizer
B6: Human skeletal myosin S2 peptide (MYH2), 19 residues (peptide)
peptide: EVTERAEDEEEINAELTAK
modifications: also: in FRET: FITC on N-terminus of one monomer, terbium-DTPA-cytosine chelate on C-terminal Lys of the other
notes: also called skeletal muscle myosin S2^pep
B7: Skeletal muscle myosin S2 synthetic peptide for GFS (MYH2), 36 residues (peptide)
peptide: KIQLEAKIKEVTERAEDEEEINAELTAKKRKLEDEC
B8: Human smooth myosin S2 peptide (MYH11), 21 residues (peptide)
peptide: EMEARLEEEEDRGQQLQAERK
modifications: also: in FRET: FITC on N-terminus of one monomer, terbium-DTPA-cytosine chelate on C-terminal Lys of the other
notes: also called smooth muscle myosin S2^pep
B9: Human β-cardiac mutant myosin S2 peptide (E924K), 19 residues (peptide)
peptide: EMNKRLEDEEEMNAELTAK
modifications: also: in FRET: FITC on N-terminus of one monomer, terbium-DTPA-cytosine chelate on C-terminal Lys of the other
notes: E924K already in the entry; also called Cardiac Myosin S2 Mutant, E924K
B10: TRITC (tetramethylrhodamine) labeled stabilizing peptide (peptide)
peptide: KKKKKKKKFKAKKKKKK
modifications: also: TRITC label, site not given here
notes: also called labeled Stabilizer; fluorescently labelled stabilizer peptide
B11: Human β-cardiac myosin S2 peptide, wild-type (MYH7, 19 residues) (peptide)
peptide: EMNERLEDEEEMNAELTAK
modifications: also: in FRET: FITC on N-terminus of one monomer, terbium-DTPA-cytosine chelate on C-terminal Lys of the other
notes: Chemically synthesized; forms a coiled-coil dimer; also called human cardiac myosin S2 peptide; cardiac muscle myosin S2^pep
B12: Smooth muscle myosin S2 synthetic peptide for GFS (MYH11), 36 residues (peptide)
peptide: KQELEEILHEMEARLEEEEDRGQQLQAERKKMAQQC

How the values were obtained:
[1] = target: the molecule itself; test: FRET donor lifetime on dilution of donor- and acceptor-labelled peptide; dissociation of the S2 peptide coiled-coil dimer (control)
[2] = target: the molecule itself; test: FRET, dimer dissociation (control); text value differs from Table 3
Rabbit skeletal myosin [3] = target: T2, Rabbit skeletal myosin (rabbit); test: 'previously calculated Kd values'; row stands under the IC-50 head for stabilizers, read as unlabeled stabilizer; method and source of the myosin not stated
T2 construct: mature; also called rabbit whole skeletal myosin; rabbit skeletal myosin S2

[4] = target: B11; test: competitive ELISA, printed as 'binding efficiency'
Protocol: (§1) Unbound protein complexes are washed off by PBS and blocking buffer. Enzyme conjugated secondary antibody is added to the wells and allowed to conjugate for an hour. After washing with detergent buffer, color developing substrate BCIP is added and development of color in the wells is recorded. The video is analyzed by Image J to get the OD in the wells.

[5] = target: B9; test: FRET donor lifetime of 0.1 µM labelled dimer titrated with stabilizer; text value and unit differ from Table 3
From the text: (§2) Donor probe was conjugated to C-terminus of a myosin S2 peptide monomer and acceptor probe was conjugated to N-terminus of another myosin S2 peptide. In FRET as lanthanide of the donor probe decays, energy goes to fluorescein and it emits out energy in form of light. In addition, as the monomers come closer to each other, lifetime of donor decreases indicating a decrease in distance between donor and acceptor probe; an opposite effect is observed, with an increase in distance between the probes, […]. Lifetime of donor probe was measured in milliseconds.

[6] = target: B9; test: FRET donor lifetime of 0.1 µM labelled S2 peptide dimer titrated with stabilizer
[7] = target: B6; test: as above
[8] = target: B1; test: as above
[9] = target: B11; test: competitive ELISA (curve fit of OD), printed as 'binding efficiency'; antibody 1:64, 62.5 nM S2 peptide, stabilizer 0 to 250 nM, rabbit skeletal myosin coated
Protocol: as §1

[10] = target: B11; test: FRET donor lifetime of labelled S2 peptide dimer titrated with stabilizer
From the text: as §2
(§3) During FRET assay, cardiac muscle myosin S2^pep was treated with increasing concentrations of anti-S2 peptides. […] Dilution to decrease the concentration of dimer cardiac muscle myosin S2^pep was performed to measure binding affinity of coiled-coil peptide and in turn to measure minimal concentration for stable dimer formation (FIG. 25A). […] (FIG. 25B)

[11] = target: B8; test: FRET donor lifetime of the labelled smooth muscle S2 peptide dimer titrated with the peptide
From the text: as §2
The specificity of peptides were later tested on the myosin S2 of the smooth muscle (MYH11). […] Smooth muscle myosin S2^pep was treated with different concentrations of anti-S2 peptides.

[12] = target: B4; test: cell-based or functional assay
[13] = target: B12; test: cell-based or functional assay
[14] = target: B7; test: cell-based or functional assay
[15] = target: T1, Cardiac muscle myosin S2 synthetic …; test: cell-based or functional assay
[16] = target: B11; test: competitive ELISA, printed as 'binding constant'; differs from 1.37 nM at paragraph 347
Protocol: as §1

[17] = target: B4; test: cell-based or functional assay
[18] = target: B7; test: cell-based or functional assay
Rabbit skeletal myosin [19] = target: T2, Rabbit skeletal myosin; test: cell-based or functional assay
[20] = target: T1, Cardiac muscle myosin S2 synthetic …; test: cell-based or functional assay
Rabbit skeletal myosin [21] = target: T2, Rabbit skeletal myosin; test: 'previously calculated Kd values, concentrations at which half of myosin is saturated'; method and source of the myosin not stated
[22] = target: the molecule itself; test: cell-based or functional assay
[23] = target: B11; test: FRET donor lifetime of labelled S2 peptide dimer titrated with destabilizer
From the text: as §2, §3

[24] = target: B11; test: competitive ELISA (curve fit of OD, FIG. 44B); antibody 1:64, 62.5 nM human cardiac S2 peptide, rabbit skeletal myosin coated; the sentence does not name the target
Protocol: (§4) The assay began with coating 96 well microtiter plate with rabbit skeletal myosin molecule overnight. […] After incubation at room temperature for an hour, the unbound protein complexes were washed with PBS and blocking buffer. Enzyme conjugated secondary antibody were added on to the wells and allowed conjugate for an hour at room temperature. After washing the wells with detergent buffer, color developing BCIP substrate were added on to the wells. Images of the color developed in the wells were captured and analyzed in Image J.

[25] = target: B6; test: FRET donor lifetime of 2 µM labelled S2 peptide dimer titrated with destabilizer
From the text: as §2
Like cardiac muscle myosin S2^pep, dilution by decreasing the concentration of dimer skeletal muscle myosin S2^pep was performed and further was treated with different concentrations of anti-S2 peptides (FIG. 28A, 28B). Different concentrations of dimer skeletal muscle myosin S2^pep was used with anti-S2 peptides.

[26] = target: B11; test: competitive ELISA (FIG. 44); differs from 6 nM at paragraph 385
Protocol: as §4

Rabbit skeletal myosin [27] = target: T2, Rabbit skeletal myosin; test: 'previously calculated Kd values'; row stands under the IC-50 head for stabilizers, read as labeled stabilizer; method and source of the myosin not stated

T2 sequence (Q28641 whole entry, chain 1 of 3): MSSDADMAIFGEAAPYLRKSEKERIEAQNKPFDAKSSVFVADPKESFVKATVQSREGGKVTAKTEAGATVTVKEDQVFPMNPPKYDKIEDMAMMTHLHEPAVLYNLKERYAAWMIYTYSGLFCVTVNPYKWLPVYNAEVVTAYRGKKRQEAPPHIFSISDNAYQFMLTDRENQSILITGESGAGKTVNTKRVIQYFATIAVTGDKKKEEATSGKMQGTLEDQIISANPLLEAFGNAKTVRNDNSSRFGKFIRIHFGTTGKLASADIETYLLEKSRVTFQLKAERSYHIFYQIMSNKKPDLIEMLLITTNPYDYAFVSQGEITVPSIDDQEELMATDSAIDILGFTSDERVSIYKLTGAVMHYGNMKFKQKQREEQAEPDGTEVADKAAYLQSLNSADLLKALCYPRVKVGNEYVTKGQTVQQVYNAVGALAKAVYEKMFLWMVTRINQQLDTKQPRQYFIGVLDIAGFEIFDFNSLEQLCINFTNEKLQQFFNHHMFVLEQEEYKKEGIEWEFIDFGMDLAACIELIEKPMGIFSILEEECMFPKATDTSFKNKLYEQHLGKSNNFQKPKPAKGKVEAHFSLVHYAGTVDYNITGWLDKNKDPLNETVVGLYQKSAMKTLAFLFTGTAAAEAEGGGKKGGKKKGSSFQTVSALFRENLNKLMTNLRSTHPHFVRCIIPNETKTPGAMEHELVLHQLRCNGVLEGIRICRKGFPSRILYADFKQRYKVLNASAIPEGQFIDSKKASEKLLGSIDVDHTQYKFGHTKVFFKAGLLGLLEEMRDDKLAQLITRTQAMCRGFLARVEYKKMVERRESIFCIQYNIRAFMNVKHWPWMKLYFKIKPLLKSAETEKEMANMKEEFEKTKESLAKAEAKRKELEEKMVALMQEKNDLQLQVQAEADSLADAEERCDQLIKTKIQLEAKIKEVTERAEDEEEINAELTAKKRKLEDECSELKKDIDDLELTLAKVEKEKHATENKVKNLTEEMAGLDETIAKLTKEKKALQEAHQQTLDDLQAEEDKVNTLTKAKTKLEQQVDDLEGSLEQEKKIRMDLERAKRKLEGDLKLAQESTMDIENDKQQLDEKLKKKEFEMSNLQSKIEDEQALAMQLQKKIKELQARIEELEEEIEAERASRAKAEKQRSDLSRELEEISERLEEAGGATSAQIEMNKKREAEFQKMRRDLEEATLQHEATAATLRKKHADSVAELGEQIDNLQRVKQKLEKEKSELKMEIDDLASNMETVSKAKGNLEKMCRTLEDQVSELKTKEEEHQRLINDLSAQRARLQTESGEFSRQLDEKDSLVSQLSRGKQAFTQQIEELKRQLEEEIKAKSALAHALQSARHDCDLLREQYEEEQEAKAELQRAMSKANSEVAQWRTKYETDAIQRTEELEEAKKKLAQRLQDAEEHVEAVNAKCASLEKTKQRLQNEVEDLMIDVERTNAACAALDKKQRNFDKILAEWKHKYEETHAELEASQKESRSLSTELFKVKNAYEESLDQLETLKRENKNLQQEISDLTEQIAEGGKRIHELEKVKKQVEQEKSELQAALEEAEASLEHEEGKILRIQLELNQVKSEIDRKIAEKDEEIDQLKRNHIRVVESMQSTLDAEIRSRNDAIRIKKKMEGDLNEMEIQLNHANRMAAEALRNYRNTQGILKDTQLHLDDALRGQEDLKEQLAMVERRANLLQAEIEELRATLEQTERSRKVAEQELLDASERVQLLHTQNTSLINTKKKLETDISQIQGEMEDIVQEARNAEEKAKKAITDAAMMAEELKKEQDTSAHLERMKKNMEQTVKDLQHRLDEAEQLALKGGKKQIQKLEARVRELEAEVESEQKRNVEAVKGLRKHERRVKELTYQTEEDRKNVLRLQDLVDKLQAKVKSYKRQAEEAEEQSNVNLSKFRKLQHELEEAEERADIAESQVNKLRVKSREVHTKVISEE
T2 sequence (P02602 2-192, chain 2 of 3, further chain): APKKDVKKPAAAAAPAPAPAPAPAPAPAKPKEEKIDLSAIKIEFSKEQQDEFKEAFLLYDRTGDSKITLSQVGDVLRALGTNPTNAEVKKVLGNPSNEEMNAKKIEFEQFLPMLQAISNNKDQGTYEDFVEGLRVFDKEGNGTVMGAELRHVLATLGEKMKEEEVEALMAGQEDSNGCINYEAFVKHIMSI
T2 sequence (P02608 2-170, chain 3 of 3, further chain): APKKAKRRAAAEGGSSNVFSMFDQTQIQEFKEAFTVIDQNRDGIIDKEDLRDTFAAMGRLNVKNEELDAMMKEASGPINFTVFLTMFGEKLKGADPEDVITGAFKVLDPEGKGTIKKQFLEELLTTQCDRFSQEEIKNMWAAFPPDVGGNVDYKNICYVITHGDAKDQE

Binder: B1
- Kd [1]: 1.11 µM
- Kd [2]: 3.24 µM

Binder: B2
- Kd (Rabbit skeletal myosin [3]): 0.006 µM
- Kd [4]: 0.001 µM
- Kd [5]: 36200 µM
- Kd [6]: 0.034 µM
- Kd [7]: 0.0197 µM
- Kd [8]: 0.238 µM
- Kd [9]: 0.00137 µM
- Kd [10]: 0.0212 µM
- binding result [11]: no binding
- GFS: force to uncoil the S2 peptide dimer to a length of 10 nm, with stabilizer [12]: 1.55 pN
- GFS: force to uncoil the S2 peptide dimer to a length of 10 nm, with stabilizer [13]: 0.496 pN
- GFS: force to uncoil the S2 peptide dimer to a length of 10 nm, with stabilizer [14]: 0.628 pN
- GFS: force to uncoil the S2 peptide dimer to a length of 10 nm, with stabilizer [15]: 1.07 pN
- Kd [16]: 0.00138 µM
- GFS: fold increase of the force required to uncoil the coiled coil against control [17]: 1.8 times
- GFS: fold increase of the force required to uncoil the coiled coil against control [18]: 1.4 times
- GFS: fold of force required to uncoil myosin in presence of stabilizer against control (Rabbit skeletal myosin [19]): 1.5 times
- GFS: fold increase of the force required to uncoil the coiled coil against control [20]: 2.6 times

Binder: B3
- Kd (Rabbit skeletal myosin [21]): 0.176 µM

Binder: B4
- GFS: force to uncoil the S2 peptide dimer to a length of 10 nm, no anti-S2 peptide (control) [22]: 0.863 pN

Binder: B5
- Kd (Rabbit skeletal myosin [21]): 0.075 µM
- Kd [23]: 1.33 µM
- Kd [24]: 0.006 µM
- Kd [25]: 0.469 µM
- binding result [11]: no binding
- GFS: force to uncoil the S2 peptide dimer to a length of 10 nm, with destabilizer [12]: 0.436 pN
- GFS: force to uncoil the S2 peptide dimer to a length of 10 nm, with destabilizer [13]: 0.451 pN
- GFS: force to uncoil the S2 peptide dimer to a length of 10 nm, with destabilizer [14]: 0.184 pN
- Kd [26]: 0.001 µM
- GFS: fold decrease of the force required to uncoil the coiled coil against control [17]: 1.98 times
- GFS: fold decrease of the force required to uncoil the coiled coil against control [18]: 2.45 times
- GFS: fold less force required to uncoil myosin in presence of destabilizer against control (Rabbit skeletal myosin [19]): 1.6 times

Binder: B6
- Kd [1]: 0.341 µM

Binder: B7
- GFS: force to uncoil the S2 peptide dimer to a length of 10 nm, no anti-S2 peptide (control) [22]: 0.45 pN

Binder: B8
- Kd [1]: 0.302 µM

Binder: B9
- Kd [1]: 0.942 µM
- Kd [2]: 2.54 µM

Binder: B10
- Kd (Rabbit skeletal myosin [27]): 0.33 µM

Binder: B11
- Kd [1]: 0.303 µM
- Kd [2]: 0.308 µM

Binder: B12
- GFS: force to uncoil the S2 peptide dimer to a length of 10 nm, no anti-S2 peptide (control) [22]: 0.461 pN
